Experimental data as given in patent publication US20230136228A1 (LAMKAP BIO ALPHA, published 2023).

Experiments:
[1] = target: T1, human CEACAM8 (human, UniProt P31997 35-320); test: flow cytometry, MFI on transfected PEAK cells divided by MFI on WT PEAK cells
T1 construct: whole, on cells
T1 sequence (looked up): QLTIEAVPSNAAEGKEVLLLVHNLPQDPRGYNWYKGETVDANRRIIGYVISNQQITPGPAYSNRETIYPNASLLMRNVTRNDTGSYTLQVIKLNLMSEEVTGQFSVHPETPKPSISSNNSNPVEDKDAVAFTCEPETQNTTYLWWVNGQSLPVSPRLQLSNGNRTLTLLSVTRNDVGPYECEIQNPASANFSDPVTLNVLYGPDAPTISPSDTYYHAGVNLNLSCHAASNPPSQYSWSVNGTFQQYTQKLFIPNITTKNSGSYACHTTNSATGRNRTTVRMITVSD
Method: (§1) Similarly, vectors encoding the full-length version of cyno CEACAM 5 and 6 are also used to express these proteins at the surface of PEAK and/or CHO cells. Non-transfected PEAK and/or CHO cells are used as negative control. Cells are harvested, counted, checked for viability and resuspended at 3×10⁶ cells/ml in FACS buffer (PBS 2% BSA, 0.1% NaN₃). 100 μl of the cell suspension are distributed in V-bottom 96-well plates (3×10⁵ cells/well). The supernatant is removed by centrifugation 3 minutes at 4° C., 1300 rpm and the cells incubated for 15 minutes at 4° C. with increasing concentrations of the antibody according to the invention. The antibodies carrying the anti-CEACAM5 arms to test are diluted in FACS buffer and the concentration range is 30 pM-500 nM. Cells are washed twice with cold FACS buffer and re-incubated for further 15 minutes at 4° C. with a compatible anti-human IgG secondary antibody. Cells are washed twice with cold FACS buffer and resuspended in 300 μl FACS buffer with 1:1500-diluted TOPRO-3 (Invitrogen). Fluorescence is measured using a FACSCalibur™ (BD Biosciences) or a Cytoflex Platform (Beckman Coulter). Dose-response binding curves are fitted using GraphPad Prism8 software. In the same manner, CEACAM1, CEACAM6 and other CEACAMs can be characterized.
(§2) For the bispecific antibodies AB17L3-1/N, AB71L3-1/N, AB72L3-1/N, AB73L3-1/N the MFI measured for binding to CEACAM5 transfected cells was found between 29000 and 41000 (Table 2). In contrast MFI found by using PEAK cells transfected with CEACAM 1,3,4,6,8 were found below 1000 with the only exception of a strong signal for AB72L3-1/N on CEACAM8 transfected cells. When MFI values obtained on transfected cells expressing any given CEACAM are divided by the values obtained on WT PEAK cells, “factors to PEAK WT” can be calculated (Table 3). With the exception of AB72L3-1/N, the antibodies of the invention are all specific to CEACAM5, as the “factor to PEAK WT” values are all below 2.0.

[2] = target: T2, human CEACAM3 (human, UniProt P40198 35-252); test: as above
T2 construct: whole, on cells
T2 sequence (looked up): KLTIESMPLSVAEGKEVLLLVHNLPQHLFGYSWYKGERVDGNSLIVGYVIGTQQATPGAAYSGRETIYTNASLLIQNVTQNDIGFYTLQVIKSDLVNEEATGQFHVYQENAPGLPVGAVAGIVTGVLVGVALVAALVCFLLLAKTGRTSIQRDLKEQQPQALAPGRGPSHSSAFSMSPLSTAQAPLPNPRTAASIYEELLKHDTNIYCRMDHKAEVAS
Method: as §1, §2

[3] = target: T3, human CEACAM4 (human, UniProt O75871 36-244); test: as above
T3 construct: whole, on cells
T3 sequence (looked up): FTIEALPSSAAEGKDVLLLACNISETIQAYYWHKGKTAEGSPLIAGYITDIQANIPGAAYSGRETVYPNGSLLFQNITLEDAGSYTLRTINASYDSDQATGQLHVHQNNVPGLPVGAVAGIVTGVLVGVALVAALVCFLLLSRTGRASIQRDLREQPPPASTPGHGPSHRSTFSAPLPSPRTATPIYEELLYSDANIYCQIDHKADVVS
Method: as §1, §2

[4] = target: T4, human CEACAM6 (human, UniProt P40199 35-320); test: as above
T4 construct: whole, on cells; also called CD66c
T4 sequence (looked up): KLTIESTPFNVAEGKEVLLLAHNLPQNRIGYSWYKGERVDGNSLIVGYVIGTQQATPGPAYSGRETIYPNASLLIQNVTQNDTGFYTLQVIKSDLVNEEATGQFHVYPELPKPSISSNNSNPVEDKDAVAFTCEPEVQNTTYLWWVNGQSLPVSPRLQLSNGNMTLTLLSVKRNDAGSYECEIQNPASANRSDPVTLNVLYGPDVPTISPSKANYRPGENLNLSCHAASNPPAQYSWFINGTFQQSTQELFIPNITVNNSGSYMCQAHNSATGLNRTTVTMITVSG
Method: as §1, §2

[5] = target: T5, human CEACAM5 (carcinoembryonic antigen, CEA), cell surface (human, UniProt P06731 35-685); test: as above
T5 construct: whole, on cells; also called CD66e
T5 sequence (looked up): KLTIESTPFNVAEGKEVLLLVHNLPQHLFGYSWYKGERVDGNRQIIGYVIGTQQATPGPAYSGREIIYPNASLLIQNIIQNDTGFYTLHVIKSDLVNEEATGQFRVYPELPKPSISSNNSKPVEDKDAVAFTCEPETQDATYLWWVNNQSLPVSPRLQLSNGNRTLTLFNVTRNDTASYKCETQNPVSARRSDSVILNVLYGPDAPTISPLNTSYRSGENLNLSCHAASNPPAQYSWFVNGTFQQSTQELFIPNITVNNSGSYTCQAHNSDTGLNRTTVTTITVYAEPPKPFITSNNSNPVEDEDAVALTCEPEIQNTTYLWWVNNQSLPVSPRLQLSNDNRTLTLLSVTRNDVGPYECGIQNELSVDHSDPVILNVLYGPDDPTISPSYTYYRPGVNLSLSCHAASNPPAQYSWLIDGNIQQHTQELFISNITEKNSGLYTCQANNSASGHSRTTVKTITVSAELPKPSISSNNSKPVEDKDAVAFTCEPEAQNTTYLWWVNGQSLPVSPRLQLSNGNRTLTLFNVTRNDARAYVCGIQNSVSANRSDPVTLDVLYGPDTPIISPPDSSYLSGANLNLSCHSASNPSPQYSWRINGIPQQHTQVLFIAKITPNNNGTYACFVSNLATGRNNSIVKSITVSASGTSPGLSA
Method: as §1, §2

[6] = target: T5, human CEACAM5 (carcinoembryonic …); test: flow cytometry, CEA positive cells

Binder | Factor to PEAK WT [1] [fold] | Factor to PEAK WT [2] [fold] | Factor to PEAK WT [3] [fold] | Factor to PEAK WT [4] [fold] | Factor to PEAK WT [5] [fold] | binding higher than TCB2014 (at 200 nM) [6] [%]
AB17L3-1/N (bispecific antibody, human IgG1, kappa, lambda, L234A L235A, Kappa-lambda body, lead optimization wave 1) heavy: EVQLVESGGGLVQPGGSLKLSCAASGFTFNTYAMNWVRQAPGKGLEWVGRIRSKYNNYATYYADSVKDRFTISRDDSKNTAYLQMNSLKTEDTAVYYCVRHGNFGNSYVSWFAYWGQGTLVTVSSASTKGPSVFPLAPSSKSTSGGTAALGCLVKDYFPEPVTVSWNSGALTSGVHTFPAVLQSSGLYSLSSVVTVPSSSLGTQTYICNVNHKPSNTKVDKRVEPKSCDKTHTCPPCPAPEAAGGPSVFLFPPKPKDTLMISRTPEVTCVVVDVSHEDPEVKFNWYVDGVEVHNAKTKPREEQYNSTYRVVSVLTVLHQDWLNGKEYKCKVSNKALAAPIEKTISKAKGQPREPQVYTLPPSREEMTKNQVSLTCLVKGFYPSDIAVEWESNGQPENNYKTTPPVLDSDGSFFLYSKLTVDKSRWQQGNVFSCSVMHEALHNHYTQKSLSLSPG light 1: EIVLTQSPATLSLSPGERATLSCRASQSVNSNLNWYQQKPGQAPRLLIYHGSNRATGIPARFSGSGSGTDFTLTISSLEPEDFAVYYCQQFDYFKEHNTFGQGTKVEIKRTVAAPSVFIFPPSDEQLKSGTASVVCLLNNFYPREAKVQWKVDNALQSGNSQESVTEQDSKDSTYSLSSTLTLSKADYEKHKVYACEVTHQGLSSPVTKSFNRGEC light 2: QTVVTQEPSLTVSPGGTVTLTCRSSTGAVTTSNYANWFQQKPGQAPRGLIGGTNKRAPGTPARFSGSLLGGKAALTLSGAQPEDEAEYYCALWYKQRWVFGGGTKLTVLGQPKAAPSVTLFPPSSEELQANKATLVCLISDFYPGAVTVAWKADSSPVKAGVETTTPSKQSNNKYAASSYLSLTPEQWKSHRSYSCQVTHEGSTVEKTVAPTECS | 0.8 | 1.2 | 0.8 | 1 | 55.1 | –
AB1L3-1/N (bispecific antibody, human IgG1, kappa, lambda, L234A L235A, Kappa-lambda body: common heavy chain (hIgG1 L234A+L235A+P329A), kappa CEA light chain AB1, lambda CD3 light chain L3-1 (1A4); also called parental KL bispecific antibody) heavy: EVQLVESGGGLVQPGGSLKLSCAASGFTFNTYAMNWVRQAPGKGLEWVGRIRSKYNNYATYYADSVKDRFTISRDDSKNTAYLQMNSLKTEDTAVYYCVRHGNFGNSYVSWFAYWGQGTLVTVSSASTKGPSVFPLAPSSKSTSGGTAALGCLVKDYFPEPVTVSWNSGALTSGVHTFPAVLQSSGLYSLSSVVTVPSSSLGTQTYICNVNHKPSNTKVDKRVEPKSCDKTHTCPPCPAPEAAGGPSVFLFPPKPKDTLMISRTPEVTCVVVDVSHEDPEVKFNWYVDGVEVHNAKTKPREEQYNSTYRVVSVLTVLHQDWLNGKEYKCKVSNKALAAPIEKTISKAKGQPREPQVYTLPPSREEMTKNQVSLTCLVKGFYPSDIAVEWESNGQPENNYKTTPPVLDSDGSFFLYSKLTVDKSRWQQGNVFSCSVMHEALHNHYTQKSLSLSPG light 1: EIVLTQSPATLSLSPGERATLSCRASQSVNSNLNWYQQKPGQAPRLLIYHGSNRATGIPARFSGSGSGTDFTLTISSLEPEDFAVYYCQQFDLRHEHNTFGQGTKVEIKRTVAAPSVFIFPPSDEQLKSGTASVVCLLNNFYPREAKVQWKVDNALQSGNSQESVTEQDSKDSTYSLSSTLTLSKADYEKHKVYACEVTHQGLSSPVTKSFNRGEC light 2: QTVVTQEPSLTVSPGGTVTLTCRSSTGAVTTSNYANWFQQKPGQAPRGLIGGTNKRAPGTPARFSGSLLGGKAALTLSGAQPEDEAEYYCALWYKQRWVFGGGTKLTVLGQPKAAPSVTLFPPSSEELQANKATLVCLISDFYPGAVTVAWKADSSPVKAGVETTTPSKQSNNKYAASSYLSLTPEQWKSHRSYSCQVTHEGSTVEKTVAPTECS | 0.7 | 0.8 | 0.7 | 0.8 | 16.8 | –
AB71L3-1/N (bispecific antibody, human IgG1, kappa, lambda, L234A L235A, Kappa-lambda body, lead optimization wave 2) heavy: EVQLVESGGGLVQPGGSLKLSCAASGFTFNTYAMNWVRQAPGKGLEWVGRIRSKYNNYATYYADSVKDRFTISRDDSKNTAYLQMNSLKTEDTAVYYCVRHGNFGNSYVSWFAYWGQGTLVTVSSASTKGPSVFPLAPSSKSTSGGTAALGCLVKDYFPEPVTVSWNSGALTSGVHTFPAVLQSSGLYSLSSVVTVPSSSLGTQTYICNVNHKPSNTKVDKRVEPKSCDKTHTCPPCPAPEAAGGPSVFLFPPKPKDTLMISRTPEVTCVVVDVSHEDPEVKFNWYVDGVEVHNAKTKPREEQYNSTYRVVSVLTVLHQDWLNGKEYKCKVSNKALAAPIEKTISKAKGQPREPQVYTLPPSREEMTKNQVSLTCLVKGFYPSDIAVEWESNGQPENNYKTTPPVLDSDGSFFLYSKLTVDKSRWQQGNVFSCSVMHEALHNHYTQKSLSLSPG light 1: EIVLTQSPATLSLSPGERATLSCRASQSVNSNLNWYQQKPGQAPRLLIYHSSNRPHGIPARFSGSGSGTDFTLTISSLEPEDFAVYYCQQFDYFKEHNTFGQGTKVEIKRTVAAPSVFIFPPSDEQLKSGTASVVCLLNNFYPREAKVQWKVDNALQSGNSQESVTEQDSKDSTYSLSSTLTLSKADYEKHKVYACEVTHQGLSSPVTKSFNRGEC light 2: QTVVTQEPSLTVSPGGTVTLTCRSSTGAVTTSNYANWFQQKPGQAPRGLIGGTNKRAPGTPARFSGSLLGGKAALTLSGAQPEDEAEYYCALWYKQRWVFGGGTKLTVLGQPKAAPSVTLFPPSSEELQANKATLVCLISDFYPGAVTVAWKADSSPVKAGVETTTPSKQSNNKYAASSYLSLTPEQWKSHRSYSCQVTHEGSTVEKTVAPTECS | 0.9 | 0.8 | 0.7 | 1 | 79.7 | ≥ 40
